Data published in publication doi:10.1101/2020.08.05.236513.

Target: H-2 I-A^b class II MHC molecule (mouse (endogenous in LB27.4))
Experiment: radioligand binding

fold lower binding than the P. goldsteinii epitope: 3 fold
Binder: Ac-KWDYRESRVWVNDQ-NH2 [14-mer N-acetylated P. merdae β-hex peptide]
